# Measured values reported in US6358732.
# System: CDF (CDE-binding factor)
# Assay: cell_activity
# Settings: transient transfection NIH3T3, luciferase; indirect
substance,measurement,value
cdc25C promoter CDE-CHR region,activity (fold growing/G0),17.5
